Measured values taken from paper PMC9482650, “Quantitative fragmentomics allow affinity mapping of interactomes” (Nature Communications, 2022).
Each block holds one binder with its values, some of them ahead of it.

What was measured:
Test in all cases: holdup assay
Set-up in all cases: key: below the threshold = too weak to quantify, mostly under pKd 3.1 to 4
DFNB31_1, Q9P202 = molecular target: T1, DFNB31_1, Q9P202
T1 sequence (Q9P202 135-233, limits assumed, looked up): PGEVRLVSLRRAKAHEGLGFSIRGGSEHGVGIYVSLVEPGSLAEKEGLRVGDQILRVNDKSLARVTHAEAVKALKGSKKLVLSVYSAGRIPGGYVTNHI

DLG4_2, P78352 = molecular target: DLG4_2, P78352
DVL3, Q92997 = molecular target: T2, DVL3, Q92997
T2 sequence (Q92997 244-331, limits assumed, looked up): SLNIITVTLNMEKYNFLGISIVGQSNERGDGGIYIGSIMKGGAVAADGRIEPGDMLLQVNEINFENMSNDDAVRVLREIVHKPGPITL

GIPC2, Q8TF65 = molecular target: GIPC2, Q8TF65
HTRA2, O43464 = molecular target: HTRA2, O43464
IL16_4, Q14005 = molecular target: IL16_4, Q14005
LNX1_1, Q8TBB1 = molecular target: LNX1_1, Q8TBB1
MAGI2_3, Q86UL8 = molecular target: MAGI2_3, Q86UL8
NHERF3_4, Q5T2W1 = molecular target: T3, NHERF3_4, Q5T2W1
T3 sequence (Q5T2W1 373-468, limits assumed, looked up): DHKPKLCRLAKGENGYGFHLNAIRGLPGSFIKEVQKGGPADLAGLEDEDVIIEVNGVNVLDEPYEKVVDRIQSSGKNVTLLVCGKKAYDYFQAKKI

SCRIB_1, Q14160 = molecular target: SCRIB_1, Q14160
TJP2_1, Q9UDY2 = molecular target: TJP2_1, Q9UDY2
AHNAK1, Q09666 = molecular target: AHNAK1, Q09666
APBA1_1, Q02410 = molecular target: T4, APBA1_1, Q02410
T4 sequence (Q02410 651-752, limits assumed, looked up): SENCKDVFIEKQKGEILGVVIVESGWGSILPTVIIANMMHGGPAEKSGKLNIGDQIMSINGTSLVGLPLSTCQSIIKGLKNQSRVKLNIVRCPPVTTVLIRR

FRMPD4, Q14CM0 = molecular target: FRMPD4, Q14CM0
GRIP1_3, Q9Y3R0 = molecular target: T5, GRIP1_3, Q9Y3R0
T5 sequence (Q9Y3R0 247-346, limits assumed, looked up): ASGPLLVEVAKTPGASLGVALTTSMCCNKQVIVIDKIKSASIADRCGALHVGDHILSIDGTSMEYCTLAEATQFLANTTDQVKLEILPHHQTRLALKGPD

GRIP1_4, Q9Y3R0 = molecular target: T6, GRIP1_4, Q9Y3R0
T6 sequence (Q9Y3R0 467-571, limits assumed, looked up): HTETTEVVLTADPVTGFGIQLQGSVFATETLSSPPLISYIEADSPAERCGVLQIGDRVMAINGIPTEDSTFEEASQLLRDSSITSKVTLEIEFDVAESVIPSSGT

GRIP2_7, Q9C0E4 = molecular target: GRIP2_7, Q9C0E4
HTRA3, P83110 = molecular target: T7, HTRA3, P83110
T7 sequence (P83110 354-453, limits assumed, looked up): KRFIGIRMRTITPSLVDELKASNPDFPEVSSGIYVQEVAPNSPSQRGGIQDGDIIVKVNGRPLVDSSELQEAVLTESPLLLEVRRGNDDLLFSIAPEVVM

Inadl_10, Q8NI35 = molecular target: Inadl_10, Q8NI35
Inadl_2, Q8NI35 = molecular target: Inadl_2, Q8NI35
Inadl_3, Q8NI35 = molecular target: Inadl_3, Q8NI35
MAST2, Q6P0Q8 = molecular target: MAST2, Q6P0Q8
NHERF4_4, Q86UT5 = molecular target: NHERF4_4, Q86UT5
PDZD7_3, Q9H5P4 = molecular target: T8, PDZD7_3, Q9H5P4
T8 sequence (Q9H5P4 857-944, limits assumed, looked up): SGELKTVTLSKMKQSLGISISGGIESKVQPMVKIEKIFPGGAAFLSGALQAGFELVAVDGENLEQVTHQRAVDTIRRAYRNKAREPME

SCRIB_2, Q14160 = molecular target: SCRIB_2, Q14160
SYNJ2BP, P57105 = molecular target: T9, SYNJ2BP, P57105
T9 sequence (P57105 8-110, limits assumed, looked up): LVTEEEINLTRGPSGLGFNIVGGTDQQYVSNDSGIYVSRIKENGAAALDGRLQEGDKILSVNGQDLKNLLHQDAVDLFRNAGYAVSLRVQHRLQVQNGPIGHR

TJP1_3, Q07157 = molecular target: TJP1_3, Q07157
TX1BP3, O14907 = molecular target: T10, TX1BP3, O14907
T10 sequence (O14907 10-122, limits assumed, looked up): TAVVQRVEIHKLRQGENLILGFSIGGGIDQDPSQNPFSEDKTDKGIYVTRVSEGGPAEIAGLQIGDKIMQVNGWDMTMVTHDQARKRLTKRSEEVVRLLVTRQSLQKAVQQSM

[1] = plain residues with an end cap or a label only (N-terminal biotin on a linker: ado-ado)
[2] = plain residues with an end cap or a label only (N-terminal biotin on a linker: ahx)
[3] = plain residues with an end cap or a label only (N-terminal biotin on a linker: ttds)

Chain of HTRA2, O43464 (O43464 355-458): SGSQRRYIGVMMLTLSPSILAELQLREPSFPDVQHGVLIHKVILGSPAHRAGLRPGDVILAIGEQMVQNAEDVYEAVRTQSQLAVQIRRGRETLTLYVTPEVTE
Chain of IL16_4, Q14005 (Q14005 1229-1329): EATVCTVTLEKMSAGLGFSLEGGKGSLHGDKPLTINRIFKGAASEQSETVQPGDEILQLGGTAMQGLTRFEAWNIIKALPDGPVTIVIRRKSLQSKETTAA
Chain of GIPC2, Q8TF65 (Q8TF65 112-203): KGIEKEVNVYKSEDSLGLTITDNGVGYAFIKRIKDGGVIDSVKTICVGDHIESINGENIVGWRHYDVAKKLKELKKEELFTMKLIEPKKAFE
Chain of MAGI2_3, Q86UL8 (Q86UL8 600-682): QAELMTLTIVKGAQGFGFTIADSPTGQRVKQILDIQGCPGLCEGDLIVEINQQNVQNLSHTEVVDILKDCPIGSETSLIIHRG
Chain of SCRIB_1, Q14160 (Q14160 718-814): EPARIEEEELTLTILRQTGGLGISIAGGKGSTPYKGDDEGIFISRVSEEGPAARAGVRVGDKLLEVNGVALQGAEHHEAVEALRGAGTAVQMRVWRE
Chain of TJP2_1, Q9UDY2 (Q9UDY2 24-128): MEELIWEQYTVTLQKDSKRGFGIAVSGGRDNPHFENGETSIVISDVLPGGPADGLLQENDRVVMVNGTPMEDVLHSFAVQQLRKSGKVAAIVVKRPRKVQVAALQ
Chain of DLG4_2, P78352 (P78352 155-259): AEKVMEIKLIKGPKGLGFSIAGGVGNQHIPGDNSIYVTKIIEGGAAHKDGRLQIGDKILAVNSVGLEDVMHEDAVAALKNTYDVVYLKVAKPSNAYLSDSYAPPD
Chain of LNX1_1, Q8TBB1 (Q8TBB1 261-371): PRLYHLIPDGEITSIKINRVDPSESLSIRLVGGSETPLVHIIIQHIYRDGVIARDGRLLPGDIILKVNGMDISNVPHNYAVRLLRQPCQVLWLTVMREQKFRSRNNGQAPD
Chain of SCRIB_2, Q14160 (Q14160 857-960): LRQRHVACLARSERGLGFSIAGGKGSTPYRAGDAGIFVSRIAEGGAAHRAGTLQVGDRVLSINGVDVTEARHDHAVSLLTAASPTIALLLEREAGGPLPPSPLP
Chain of TJP1_3, Q07157 (Q07157 416-512): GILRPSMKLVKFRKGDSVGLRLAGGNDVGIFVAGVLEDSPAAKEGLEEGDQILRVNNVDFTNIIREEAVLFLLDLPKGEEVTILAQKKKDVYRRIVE
Chain of Inadl_2, Q8NI35 (Q8NI35 238-335): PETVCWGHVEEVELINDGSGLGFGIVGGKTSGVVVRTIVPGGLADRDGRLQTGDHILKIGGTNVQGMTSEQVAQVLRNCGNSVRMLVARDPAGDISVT
Chain of FRMPD4, Q14CM0 (Q14CM0 67-160): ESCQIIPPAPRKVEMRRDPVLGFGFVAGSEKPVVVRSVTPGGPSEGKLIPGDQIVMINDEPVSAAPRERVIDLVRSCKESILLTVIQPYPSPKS
Chain of AHNAK1, Q09666 (Q09666 4-100): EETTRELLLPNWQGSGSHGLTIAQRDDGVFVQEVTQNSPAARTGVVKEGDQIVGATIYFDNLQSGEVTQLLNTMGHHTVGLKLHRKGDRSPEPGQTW
Chain of Inadl_10, Q8NI35 (Q8NI35 1673-1763): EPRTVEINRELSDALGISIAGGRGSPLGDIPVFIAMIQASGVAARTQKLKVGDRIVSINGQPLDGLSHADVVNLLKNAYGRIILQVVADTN
Chain of Inadl_3, Q8NI35 (Q8NI35 359-469): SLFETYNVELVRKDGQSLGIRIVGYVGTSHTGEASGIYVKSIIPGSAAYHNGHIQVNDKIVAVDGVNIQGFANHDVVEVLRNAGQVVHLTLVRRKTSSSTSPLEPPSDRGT
Chain of GRIP2_7, Q9C0E4 (Q9C0E4 934-1023): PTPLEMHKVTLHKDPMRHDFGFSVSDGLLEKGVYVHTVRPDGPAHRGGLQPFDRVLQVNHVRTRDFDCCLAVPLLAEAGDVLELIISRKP
Chain of NHERF4_4, Q86UT5 (Q86UT5 464-550): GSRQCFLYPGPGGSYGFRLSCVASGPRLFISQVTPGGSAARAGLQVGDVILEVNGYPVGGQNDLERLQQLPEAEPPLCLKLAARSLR
Chain of MAST2, Q6P0Q8 (Q6P0Q8 1099-1202): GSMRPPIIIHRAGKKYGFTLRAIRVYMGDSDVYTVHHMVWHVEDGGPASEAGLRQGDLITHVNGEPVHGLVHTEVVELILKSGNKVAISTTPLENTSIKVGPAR

- pKd (DFNB31_1, Q9P202; [1]): 3.64
- pKd (DLG4_2, P78352; [1]): 3.78
- pKd (DVL3, Q92997; [1]): 3.49
- pKd (GIPC2, Q8TF65; [1]): 3.48
- pKd (HTRA2, O43464; [1]): 3.61
- pKd (IL16_4, Q14005; [1]): 3.68
- pKd (LNX1_1, Q8TBB1; [1]): 3.73
- pKd (MAGI2_3, Q86UL8; [1]): 3.55
- pKd (NHERF3_4, Q5T2W1; [1]): 3.59
- pKd (SCRIB_1, Q14160; [1]): 3.64
- pKd (TJP2_1, Q9UDY2; [1]): 3.63
Binder: KSRVAFFEEL [NF2, P35240]

- pKd (AHNAK1, Q09666; [2]): below the threshold
- pKd (APBA1_1, Q02410; [2]): below the threshold
- pKd (DFNB31_1, Q9P202; [2]): 4.23
- pKd (DLG4_2, P78352; [2]): 4.98
- pKd (DVL3, Q92997; [2]): below the threshold
- pKd (FRMPD4, Q14CM0; [2]): below the threshold
- pKd (GIPC2, Q8TF65; [2]): below the threshold
- pKd (GRIP1_3, Q9Y3R0; [2]): below the threshold
- pKd (GRIP1_4, Q9Y3R0; [2]): below the threshold
- pKd (GRIP2_7, Q9C0E4; [2]): below the threshold
- pKd (HTRA2, O43464; [2]): below the threshold
- pKd (HTRA3, P83110; [2]): below the threshold
- pKd (IL16_4, Q14005; [2]): below the threshold
- pKd (Inadl_10, Q8NI35; [2]): below the threshold
- pKd (Inadl_2, Q8NI35; [2]): below the threshold
- pKd (Inadl_3, Q8NI35; [2]): 3.66
- pKd (LNX1_1, Q8TBB1; [2]): 3.85
- pKd (MAGI2_3, Q86UL8; [2]): 3.98
- pKd (MAST2, Q6P0Q8; [2]): 5.29
- pKd (NHERF3_4, Q5T2W1; [2]): below the threshold
- pKd (NHERF4_4, Q86UT5; [2]): below the threshold
- pKd (PDZD7_3, Q9H5P4; [2]): 4.51
- pKd (SCRIB_1, Q14160; [2]): 5.64
- pKd (SCRIB_2, Q14160; [2]): 5.31
- pKd (SYNJ2BP, P57105; [2]): 5.02
- pKd (TJP1_3, Q07157; [2]): below the threshold
- pKd (TJP2_1, Q9UDY2; [2]): 4.46
- pKd (TX1BP3, O14907; [2]): 5.47
Binder: HTHSYIETHV [CNKSR2, Q8WXI2]

- pKd (AHNAK1, Q09666; [3]): below the threshold
- pKd (APBA1_1, Q02410; [3]): below the threshold
- pKd (DFNB31_1, Q9P202; [3]): below the threshold
- pKd (DLG4_2, P78352; [3]): 4.69
- pKd (DVL3, Q92997; [3]): below the threshold
- pKd (FRMPD4, Q14CM0; [3]): below the threshold
- pKd (GIPC2, Q8TF65; [3]): 4.22
- pKd (GRIP1_3, Q9Y3R0; [3]): below the threshold
- pKd (GRIP1_4, Q9Y3R0; [3]): below the threshold
- pKd (GRIP2_7, Q9C0E4; [3]): below the threshold
- pKd (HTRA2, O43464; [3]): below the threshold
- pKd (HTRA3, P83110; [3]): below the threshold
- pKd (IL16_4, Q14005; [3]): below the threshold
- pKd (Inadl_10, Q8NI35; [3]): below the threshold
- pKd (Inadl_2, Q8NI35; [3]): below the threshold
- pKd (Inadl_3, Q8NI35; [3]): below the threshold
- pKd (LNX1_1, Q8TBB1; [3]): below the threshold
- pKd (MAGI2_3, Q86UL8; [3]): below the threshold
- pKd (MAST2, Q6P0Q8; [3]): 4.34
- pKd (NHERF3_4, Q5T2W1; [3]): below the threshold
- pKd (NHERF4_4, Q86UT5; [3]): below the threshold
- pKd (PDZD7_3, Q9H5P4; [3]): below the threshold
- pKd (SCRIB_1, Q14160; [3]): 3.63
- pKd (SCRIB_2, Q14160; [3]): 3.66
- pKd (SYNJ2BP, P57105; [3]): 4.78
- pKd (TJP1_3, Q07157; [3]): below the threshold
- pKd (TJP2_1, Q9UDY2; [3]): below the threshold
- pKd (TX1BP3, O14907; [3]): 4.27
Binder: ERKLSSESQV [LRP4, O75096]
